Reference: US20040053349A1, “Direct selection of protein complexes relevant to physiological or diagnostic context of a biological specimen” (priority 2000, published 2004)

Tested on: trypsin
Assay: Trypsin treatment of enzyme-spiked dialyzed human serum with or without ligand solutions, then residual enzyme activity assay
Assay type: biochemical
Conditions: for Relative residual activity [percent of untreated], LSA: LSA (ATP, XMP, CMP, NADP, NADPH) added before treatment with trypsin; for Relative residual activity [percent of untreated], LSA + LSB: LSA and LSB both added before treatment with trypsin; for Relative residual activity [percent of untreated], LSB: LSB (glucose, L-aspartic acid, D,L-asparagine, creatine, D,L-glyceraldehyde-3-P) added before treatment with trypsin
Protocol: 2. Ligand solutions (LS) are composed as follows:
One) ATP, XMP, CMP, NADP and NADPH are included in ligand solution LSA; and
Two) Glucose, L-aspartic acid, D,L-asparagine, creatine, D,L-glyceraidehyde-3-P are included in ligand solution LSB.
2. The serum is treated with trypsin in the absence and presence of LSA or LSB, or both. At the end of the treatment samples are assayed for enzyme activity. For details see Table 1.

Molecule	Relative residual activity [percent of untreated], LSA	Relative residual activity [percent of untreated], LSA + LSB	Relative residual activity [percent of untreated], LSB
Asparaginase	9% of untreated	90% of untreated	89% of untreated
Ribonuclease A: enzyme preparation spiked into dialyzed serum sample (protein, UniProt P61823 27-150, looked up) Ribonuclease pancreatic: KETAAAKFERQHMDSSTSAASSSNYCNQMMKSRNLTKDRCKPVNTFVHESLADVQAVCSQKNVACKNGQTNCYQSYSTMSITDCRETGSSKYPNCAYKTTQANKHIIVACEGNPYVPVHFDASV	93% of untreated	93% of untreated	11% of untreated
